These results are taken from paper PMC4869175, “Evidence that phytochrome functions as a protein kinase in plant light signalling” (Nature Communications, 2016).

Assay [1] deals with T1, Avena sativa phytochrome A, full-length wild type (Avena sativa, UniProt P06593 1-1129, phycocyanobilin chromophore assembled (chromophore-binding site C322)).
T1 construct: Avena sativa (oat) phytochrome A, full-length gene AsPHYA; 1129 residues by the printed construct limits (66-1129aa); Used as Pr (far-red irradiated) and Pfr (red irradiated) forms; also called AsphyA; FL-AsphyA; source: phycocyanobilin added in vitro
T1 sequence (looked up): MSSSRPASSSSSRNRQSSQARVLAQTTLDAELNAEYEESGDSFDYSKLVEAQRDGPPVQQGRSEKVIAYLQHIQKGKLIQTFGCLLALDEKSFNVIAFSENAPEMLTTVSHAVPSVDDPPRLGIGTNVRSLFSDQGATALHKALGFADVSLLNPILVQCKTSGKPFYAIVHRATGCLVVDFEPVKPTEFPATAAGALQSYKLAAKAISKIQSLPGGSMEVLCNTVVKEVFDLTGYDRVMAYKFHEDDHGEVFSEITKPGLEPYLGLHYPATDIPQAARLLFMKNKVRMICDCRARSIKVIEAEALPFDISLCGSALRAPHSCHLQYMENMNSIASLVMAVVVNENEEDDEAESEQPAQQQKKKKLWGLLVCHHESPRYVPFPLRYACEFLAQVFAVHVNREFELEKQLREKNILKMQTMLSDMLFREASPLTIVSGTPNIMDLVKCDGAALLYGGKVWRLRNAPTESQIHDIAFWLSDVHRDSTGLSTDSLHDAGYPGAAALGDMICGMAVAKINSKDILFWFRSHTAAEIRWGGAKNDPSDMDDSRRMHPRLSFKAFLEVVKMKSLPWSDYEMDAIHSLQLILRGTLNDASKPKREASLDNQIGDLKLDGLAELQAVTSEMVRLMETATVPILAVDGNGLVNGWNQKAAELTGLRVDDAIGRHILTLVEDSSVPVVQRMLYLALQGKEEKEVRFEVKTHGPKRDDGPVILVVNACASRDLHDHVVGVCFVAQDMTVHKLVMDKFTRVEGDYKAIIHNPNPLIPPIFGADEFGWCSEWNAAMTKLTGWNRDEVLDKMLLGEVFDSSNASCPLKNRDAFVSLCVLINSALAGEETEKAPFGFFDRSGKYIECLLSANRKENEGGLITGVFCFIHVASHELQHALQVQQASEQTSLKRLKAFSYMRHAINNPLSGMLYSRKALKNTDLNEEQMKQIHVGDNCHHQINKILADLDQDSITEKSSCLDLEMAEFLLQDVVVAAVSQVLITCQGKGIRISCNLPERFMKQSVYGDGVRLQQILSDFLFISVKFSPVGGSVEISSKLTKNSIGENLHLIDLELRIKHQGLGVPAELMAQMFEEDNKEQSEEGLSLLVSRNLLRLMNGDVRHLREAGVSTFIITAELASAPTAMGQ
The experiment in a line: pull-down; GST/strep-fused interacting protein (1.0 μg) held on glutathione resin, phytochrome (1.0 μg) in solution, Pr and Pfr forms both tested; 60 min at 4 °C in pull-down buffer (100 mM Tris-HCl pH 7.8, 1 mM EDTA, 150 mM NaCl, 100 μg/ml BSA); western blot with oat22 and anti-GST. As to conditions: both partners purified. (Immunoblotting shows a protein as a band on a membrane.)

The target in assay [2] is T2, AsphyA T418D, full length (Avena sativa, UniProt P06593 1-1129, T418D, phycocyanobilin chromophore assembled).
T2 construct: Avena sativa phytochrome A, full length, with T418D; source: phycocyanobilin added in vitro
T2 sequence (looked up): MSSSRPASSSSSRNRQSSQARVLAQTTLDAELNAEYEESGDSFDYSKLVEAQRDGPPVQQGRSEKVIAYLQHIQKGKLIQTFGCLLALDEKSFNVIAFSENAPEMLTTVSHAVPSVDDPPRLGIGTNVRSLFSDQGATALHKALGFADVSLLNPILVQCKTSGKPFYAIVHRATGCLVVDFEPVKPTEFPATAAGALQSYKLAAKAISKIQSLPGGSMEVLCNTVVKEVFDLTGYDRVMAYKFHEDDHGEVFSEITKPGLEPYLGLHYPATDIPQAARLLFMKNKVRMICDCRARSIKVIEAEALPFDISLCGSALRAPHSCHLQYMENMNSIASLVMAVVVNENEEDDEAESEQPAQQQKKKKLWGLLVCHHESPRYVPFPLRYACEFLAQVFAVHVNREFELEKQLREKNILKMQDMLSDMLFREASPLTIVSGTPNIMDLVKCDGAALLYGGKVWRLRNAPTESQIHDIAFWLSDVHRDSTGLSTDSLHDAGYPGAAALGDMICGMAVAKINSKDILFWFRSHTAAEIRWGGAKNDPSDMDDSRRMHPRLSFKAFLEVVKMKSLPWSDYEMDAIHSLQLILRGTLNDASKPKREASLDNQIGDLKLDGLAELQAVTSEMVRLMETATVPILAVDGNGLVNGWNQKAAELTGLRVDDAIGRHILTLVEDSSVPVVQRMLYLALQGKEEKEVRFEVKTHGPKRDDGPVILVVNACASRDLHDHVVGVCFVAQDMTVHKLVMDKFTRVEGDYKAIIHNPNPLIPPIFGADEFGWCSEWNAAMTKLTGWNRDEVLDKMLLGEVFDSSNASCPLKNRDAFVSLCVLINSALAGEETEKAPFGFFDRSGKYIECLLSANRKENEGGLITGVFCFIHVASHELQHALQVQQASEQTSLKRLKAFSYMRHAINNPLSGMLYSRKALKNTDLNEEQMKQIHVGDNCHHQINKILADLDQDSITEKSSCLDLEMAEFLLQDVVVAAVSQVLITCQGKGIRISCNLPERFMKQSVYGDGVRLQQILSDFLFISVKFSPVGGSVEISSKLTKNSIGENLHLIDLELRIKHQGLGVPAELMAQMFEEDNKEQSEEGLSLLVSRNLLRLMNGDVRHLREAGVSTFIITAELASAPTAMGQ
The assay is described as above. As to conditions: both partners purified.

B1: GST/strep-fused FHL (natural protein, UniProt A8MR65 1-201, looked up)
chain: MDDADKSCSPSLDHSDINDPMIVAVESLDTSKKRKLHAEESDLLPLPKHFCSEHQASLVNSSCPSSVIDYAECSYAMENTKTSDEASSSASFTGPSLYMFKDSIYSTGSSSSGYAATSSIEQCFSKVDHKTQEDTQDFTHMEFIYHDSEFAVEDLQEVLNPVESYILSSARWSVSNQDSKEATTKPTIDQEFEQYFSTLMM
notes: FHL, which with FHY1 takes part in the nuclear localization of phyA; not shown: GST, N-terminal, kept
On to B1, for which the binding result in assay [1] and in assay [2] was “binds” throughout.

B2: GST/strep-fused PIF3 (natural protein, UniProt O80536 1-524, looked up)
chain: MPLFELFRLTKAKLESAQDRNPSPPVDEVVELVWENGQISTQSQSSRSRNIPPPQANSSRAREIGNGSKTTMVDEIPMSVPSLMTGLSQDDDFVPWLNHHPSLDGYCSDFLRDVSSPVTVNEQESDMAVNQTAFPLFQRRKDGNESAPAASSSQYNGFQSHSLYGSDRARDLPSQQTNPDRFTQTQEPLITSNKPSLVNFSHFLRPATFAKTTNNNLHDTKEKSPQSPPNVFQTRVLGAKDSEDKVLNESVASATPKDNQKACLISEDSCRKDQESEKAVVCSSVGSGNSLDGPSESPSLSLKRKHSNIQDIDCHSEDVEEESGDGRKEAGPSRTGLGSKRSRSAEVHNLSERRRRDRINEKMRALQELIPNCNKVDKASMLDEAIEYLKSLQLQVQIMSMASGYYLPPAVMFPPGMGHYPAAAAAMAMGMGMPYAMGLPDLSRGGSSVNHGPQFQVSGMQQQPVAMGIPRVSGGGIFAGSSTIGNGSTRDLSGSKDQTTTNNNSNLKPIKRKQGSSDQFCGSS
notes: Probably Arabidopsis PIF3, as PIF1 and PIF4 are called Arabidopsis; not shown: GST, N-terminal, kept
Turning to B2, the binding result in assay [1] and in assay [2] was “binds” throughout.

B3: GST/strep-fused FHY1 (far-red elongated hypocotyl 1) (natural protein, UniProt Q8S4Q6 1-202, looked up)
chain: MPEVEVDNNNEKPSEINSFHHMIISSSKNVLKMEEVEVSKKRKFQTDQSDELSLLPLSKHTCFANVACSENTNGNSEIDTEYSMSSYVNSTTSMECNNDIEMKEESSGSCGEDKMISFESHLDYIYGTQNLEDFSEKVIENILYLDEQEEEEEDAKGCSSNAAKFVLSSGRWTVNQDDSTLHETKKPTIDQEFEQYFSTLML
notes: FHY1 (far-red elongated hypocotyl 1); not shown: GST, N-terminal, kept
As to B3, the binding result in assay [1] and in assay [2] was “binds” throughout.
